Test system: CN1[C@@H]2CC[C@H]1CC(=O)C2
Experiment: purified protein
Details: pH 6.4

SlTRI (Anisodus luridus) gave a Km of 40.90 ± 7.059 mM, a Vmax of 1.95 µmol/min/mg and a kcat/Km of 24 M⁻¹ s⁻¹.
